Measured values taken from patent US8722856B2, “Anti-MUC1 antibody” (National University Corporation Hokkaido University, priority 2008, dated 2014).

Experiments:
[1] = system: human mammary gland epithelial cell 184A1; test: Binding of antibody to cell with FACS; type: cell-based
Experimental: Whether the MUC1 protein expressed on a surface of a cancer cell membrane and the 1B2 antibody bound thereto was investigated by FACS. A human breast cancer cell strain T-47D (ATCC, HTB-133) and a human mammary gland epithelial cell 184A1 (ATCC, CRL-8798) which had been trypsinized with Trypsin (manufactured by Invitrogen) were washed once with a FACS buffer (PBS containing 5% FCS, 0.05% sodium azide), and suspended in 100 μl of a FACS buffer containing 10 μg/ml 1B2 antibody and the reaction was allowed to proceed at room temperature for 2 hours. The resultant reaction product was washed with a FACS buffer two times, and suspended in 200 μl of FITC-Goat Anti-Mouse IgG (manufactured by ZYMED), and the reaction was allowed to proceed at room temperature for 1 hour. After washing with a FACS buffer two times, analysis was performed by FACSAria (manufactured by BD). As a result, in T-47D, the 1B2 antibody greatly shifted the fluorescent signal of FACS (about 300-fold) as compared with a control mouse IgG2a antibody (manufactured by SIGMA-ALDRICH), while in 184A, fluorescent shift by 1B2 was scarcely seen (about 2-fold).

[2] = molecular target: T1, cancer-associated structure and normal tissue-associated structure of MUC1 (Homo sapiens, UniProt P15941); test: Sugar chain specificity, overall statements from competitive ELISA; type: binding
T1 construct: Synthesis of MUC1 Tn20-mer Glycopeptide; made in house; host or cells: chemical solid-phase synthesis, partly with enzymatic sugar extension
Experimental: (§1) Such specificity can be expressed by a difference in cross reactivity. The cross reactivity is obtained by a calculation equation of (IC50 for cancer-associated structure 2,3ST/IC50 for sugar chain structure to be compared)×100(%). As used herein, inclusion of specificity refers to a difference of 2 fold or more.
(§2) Ten days after cell fusion, screening of a specific antibody-producing cell was performed. ELISA was used in screening is as follows. To each well of a 384-well microtiter plate (manufactured by Nunc) 35 μl of a Tris buffer (50 mM Tris-HCl, pH 7.5) containing 0.35 μg of an anti-mouse IgG antibody (manufactured by Shibayagi Co., Ltd.) was added to immobilize the antibody at 4° C. for 16 hours. After these wells were washed with 90 μl of a washing solution (physiological saline containing 0.01% Tween 20) once, 200 μl of BLOCK ACE (manufactured by Dainippon Sumitomo Pharma Co., Ltd.) was added, and this was allowed to stand at room temperature for 2 hours for blocking (an anti-mouse IgG antibody solid-phased plate). After each well was washed with 90 μl of a washing solution once, 10 μl of a hybridoma culture supernatant, 10 μl of a buffer A (50 mM Tris buffer containing 0.5% bovine serum albumin, 0.01% Tween 80, 0.05% Proclin 150, and 0.15 M. NaCl, pH 7.4), and 10 μl of a buffer A containing 0.01 ng of Biotin-2,3-ST(DT*R)-20 (Compound No. 16 of Table 1) and 2 ng of Streptavidin-HRP (manufactured by PIERCE) were added to perform a reaction at 4° C. for 16 hours. Then, after each well was washed with 90 μl of a washing solution three times, 25 μl of TMB+-Substrate-Chromogen (manufactured by DAKO) was added to develop a color at room temperature for 30 minutes, 25 μl of 0.05 M sulfuric acid was added to stop the reaction, and absorbance was measured at 450 nm. […] Using a mouse monoclonal antibody isotyping ELISA kit (manufactured by BD Bioscience), a subclass of the antibody was determined and, as a result, an isotype of 1B2 was IgG2a.
(§3) Fifteen (15) μl of a buffer A containing a MUC1 antibody was added to an anti-mouse IgG antibody solid-phased plate and the reaction was allowed to proceed at room temperature for 3 hours. […] Then, after each well was washed with 90 μl of a washing solution three times, 15 μl of TMB+-Substrate-Chromogen (manufactured by DAKO) was added to develop a color at room temperature for 30 minutes, 15 μl of 0.05 M sulfuric acid was added to stop the reaction, and absorbance at 450 nm was measured.

[3] = molecular target: T2, 40 (Compound No. 13), non-glycosylated (Homo sapiens, UniProt P15941); test: Sugar chain specificity, competitive ELISA against Biotin-Tn(DT*R)-100; type: binding; conditions: Non-glycosylated peptide (Compound No. 13)
T2 construct: made in house; host or cells: chemical solid-phase synthesis
Experimental: as §1, §2, §3

[4] = molecular target: T3, Tn(DT*R)-20 (Compound No. 3) (Homo sapiens, UniProt P15941); test: as above; type: binding; conditions: glycopeptide Tn (Compound No. 3)
T3 construct: Synthesis of MUC1 Tn20-mer Glycopeptide; made in house; host or cells: chemical solid-phase synthesis
Experimental: as §1, §2, §3

[5] = molecular target: T4, dST(DT*R)-20 (Compound No. 11) (Homo sapiens, UniProt P15941); test: as above; type: binding; conditions: glycopeptide dST (Compound No. 11)
T4 construct: Synthesis of MUC1 Tn20-mer Glycopeptide; made in house; host or cells: chemical solid-phase synthesis with enzymatic sialylation
Experimental: as §1, §2, §3

[6] = molecular target: T5, STn(DT*R)-20 (Compound No. 4) (Homo sapiens, UniProt P15941); test: as above; type: binding; conditions: glycopeptide STn (Compound No. 4)
T5 construct: Synthesis of MUC1 Tn20-mer Glycopeptide; made in house; host or cells: chemical solid-phase synthesis
Experimental: as §1, §2, §3

[7] = molecular target: T6, ST2-6(DT*R)-20 (Compound No. 10) (Homo sapiens, UniProt P15941); test: as above; type: binding; conditions: glycopeptide ST2-6 (Compound No. 10)
T6 construct: Synthesis of MUC1 Tn20-mer Glycopeptide; made in house; host or cells: chemical solid-phase synthesis
Experimental: as §1, §2, §3

[8] = molecular target: T7, 2,3ST6L(DT*R)-20 (Compound No. 7) (Homo sapiens, UniProt P15941); test: as above; type: binding; conditions: glycopeptide 2,3ST6L (Compound No. 7)
T7 construct: Synthesis of MUC1 Tn20-mer Glycopeptide; made in house; host or cells: chemical solid-phase synthesis (Compound 5), then enzymatic sugar extension
Experimental: as §1, §2, §3

[9] = molecular target: T8, C6(DT*R)-20 (Compound No. 9) (Homo sapiens, UniProt P15941); test: as above; type: binding; conditions: glycopeptide C6 (Compound No. 9)
T8 construct: Synthesis of MUC1 Tn20-mer Glycopeptide; made in house; host or cells: chemical solid-phase synthesis
Experimental: as §1, §2, §3

[10] = molecular target: T9, 2,3ST6G(DT*R)-20 (Compound No. 6) (Homo sapiens, UniProt P15941); test: as above; type: binding; conditions: glycopeptide 2,3ST6G (Compound No. 6)
T9 construct: Synthesis of MUC1 Tn20-mer Glycopeptide; made in house; host or cells: chemical solid-phase synthesis (Compound 5), then enzymatic sialylation
Experimental: as §1, §2, §3

[11] = molecular target: T10, 2,3-ST(VT*S)-20 (Compound No. 12) (Homo sapiens, UniProt P15941); test: as above; type: binding; conditions: glycopeptide 2,3ST(VT*S) (Compound No. 12)
T10 construct: Synthesis of MUC1 Tn20-mer Glycopeptide; made in house; host or cells: chemical solid-phase synthesis with enzymatic sialylation
Experimental: as §1, §2, §3

T1 sequence (P15941 136-155): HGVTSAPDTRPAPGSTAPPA
T2 sequence (P15941 136-175): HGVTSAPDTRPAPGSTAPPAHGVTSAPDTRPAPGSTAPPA

IC50 for a cancer-associated structure [2]: ≤ 100 nM
cross reactivity for the normal tissue-associated structure, letting 2,3ST to be 100% [2]: ≤ 1%
specificity for a cancer-associated structure as compared with that for a normal tissue-associated structure [2]: at least 100 fold
cross reactivity with a sugar chain structure highly expressed in normal cells ([2]; 2,3ST6L(DT*R)-20, 2,3-ST6SL(DT*R)-20): low cross reactivity
affinity for a sugar chain structure highly expressed in cancer cells ([2]; T(DT*R)-20, 2,3-ST(DT*R)-20, Tn(DT*R)-20): high affinity
Cross reactivity letting 2,3-ST to be 100% [3]: 0.13%
Cross reactivity letting 2,3-ST to be 100% [4]: 81%
Cross reactivity letting 2,3-ST to be 100% [5]: 3.0%
Cross reactivity letting 2,3-ST to be 100% [6]: 0.36%
Cross reactivity letting 2,3-ST to be 100% [7]: 0.15%
Cross reactivity letting 2,3-ST to be 100% [8]: 0.063%
Cross reactivity letting 2,3-ST to be 100% [9]: 0.75%
Cross reactivity letting 2,3-ST to be 100% [10]: 0.061%
Cross reactivity letting 2,3-ST to be 100% [11]: <0.030%
B1: 1B2: mouse monoclonal anti-MUC1 antibody, isotype IgG2a, clone from immunization with 2,3-ST(DT*R)-20 conjugated to BSA (antibody, V domains shown)
VH: MEWIWIFLFILSGTAGVQSQVQLQQSGAELARPGASVKLSCKASGYTFTNYGLSWVKQRTGQGLEWIGENHPGSGIIYHNEKFRGKATLTADKSSSTAYVQLSSLTSEDSAVYFCARSSGTRGFAYWGQGTLVTVSA
VL: MKLPVRLLVLMFWIPASSSDVLMTQTPLSLPVSLGDQASISCRSSQSIVHSNGNTYLEWYLQKPGQSPKLLIYKVSNRFSGVPDRFSGSGSGTDFTLKISRVEAEDLGVYYCFQGSHGPWTFGGGTKLEIKRA
modifications: Antibody 1B2 VH sequence; Antibody 1B2 VL sequence
reaction with mammary gland epithelial cell (FACS) ([1]; 184A1): hardly reacts
shift of fluorescent signal of FACS as compared with control mouse IgG2a antibody ([1]; 184A1, 10 μg/ml antibody): about 2 fold
